Measured values: paper PMC11110392, “A first-in-class inhibitor of HSP110 to potentiate XPO1-targeted therapy in primary mediastinal B-cell lymphoma and classical Hodgkin lymphoma” (Journal of Experimental & Clinical Cancer Research : CR, 2024)

Target: T1, His-tagged HSP110 (recombinant) (UniProt Q92598 1-858, non-covalent RED-Tris-NTA 2nd generation dye on the His tag)
T1 construct: recombinant HSP110, OriGene TP307102; also called recombinant HSP110; TP307102; source: bought: OriGene (TP307102)
Assay: MST; Monolith NT.115; His-tagged HSP110 labelled with RED-Tris-NTA 2nd generation, fixed at 50 nM; STAT6 titrated from 2.39 µM to 0.07 nM
Details: both partners purified

T1 sequence (Q92598 whole entry): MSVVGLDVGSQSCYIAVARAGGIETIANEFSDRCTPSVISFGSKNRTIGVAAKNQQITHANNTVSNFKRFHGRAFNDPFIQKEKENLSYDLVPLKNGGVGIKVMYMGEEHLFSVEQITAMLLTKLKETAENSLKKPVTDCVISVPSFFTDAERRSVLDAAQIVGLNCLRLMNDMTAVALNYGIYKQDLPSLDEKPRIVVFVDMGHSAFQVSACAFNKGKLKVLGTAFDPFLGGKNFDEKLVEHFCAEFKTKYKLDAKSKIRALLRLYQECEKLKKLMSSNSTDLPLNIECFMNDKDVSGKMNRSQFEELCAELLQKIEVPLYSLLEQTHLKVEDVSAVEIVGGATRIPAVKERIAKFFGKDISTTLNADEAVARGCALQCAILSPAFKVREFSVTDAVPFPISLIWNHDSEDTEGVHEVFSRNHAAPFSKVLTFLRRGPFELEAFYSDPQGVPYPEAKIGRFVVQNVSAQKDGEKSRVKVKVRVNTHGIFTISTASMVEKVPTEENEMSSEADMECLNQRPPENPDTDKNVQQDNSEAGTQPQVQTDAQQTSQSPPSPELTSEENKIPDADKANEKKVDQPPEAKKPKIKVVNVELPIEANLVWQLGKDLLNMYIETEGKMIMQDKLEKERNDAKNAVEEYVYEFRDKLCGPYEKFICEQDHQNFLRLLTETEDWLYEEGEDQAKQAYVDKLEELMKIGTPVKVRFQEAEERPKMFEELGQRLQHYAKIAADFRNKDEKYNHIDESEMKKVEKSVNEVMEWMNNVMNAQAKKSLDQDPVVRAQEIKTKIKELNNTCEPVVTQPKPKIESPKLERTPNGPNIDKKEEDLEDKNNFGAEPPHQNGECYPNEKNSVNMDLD

- Kd: 26.7 ± 12.3 nM
B1: STAT6 (recombinant) (natural protein, UniProt P42226 1-847, looked up)
chain: MSLWGLVSKMPPEKVQRLYVDFPQHLRHLLGDWLESQPWEFLVGSDAFCCNLASALLSDTVQHLQASVGEQGEGSTILQHISTLESIYQRDPLKLVATFRQILQGEKKAVMEQFRHLPMPFHWKQEELKFKTGLRRLQHRVGEIHLLREALQKGAEAGQVSLHSLIETPANGTGPSEALAMLLQETTGELEAAKALVLKRIQIWKRQQQLAGNGAPFEESLAPLQERCESLVDIYSQLQQEVGAAGGELEPKTRASLTGRLDEVLRTLVTSCFLVEKQPPQVLKTQTKFQAGVRFLLGLRFLGAPAKPPLVRADMVTEKQARELSVPQGPGAGAESTGEIINNTVPLENSIPGNCCSALFKNLLLKKIKRCERKGTESVTEEKCAVLFSASFTLGPGKLPIQLQALSLPLVVIVHGNQDNNAKATILWDNAFSEMDRVPFVVAERVPWEKMCETLNLKFMAEVGTNRGLLPEHFLFLAQKIFNDNSLSMEAFQHRSVSWSQFNKEILLGRGFTFWQWFDGVLDLTKRCLRSYWSDRLIIGFISKQYVTSLLLNEPDGTFLLRFSDSEIGGITIAHVIRGQDGSPQIENIQPFSAKDLSIRSLGDRIRDLAQLKNLYPKKPKDEAFRSHYKPEQMGKDGRGYVPATIKMTVERDQPLPTPELQMPTMVPSYDLGMAPDSSMSMQLGPDMVPQVYPPHSHSIPPYQGLSPEESVNVLSAFQEPHLQMPPSLGQMSLPFDQPHPQGLLPCQPQEHAVSSPDPLLCSDVTMVEDSCLSQPVTAFPQGTWIGEDIFPPLLPPTEQDLTKLLLEGQGESGGGSLGAQPLLQPSHYGQSGISMSHMDLRANPSW
notes: recombinant STAT6, Abcam ab125625; also called recombinant STAT6; ab125625; source: bought: Abcam (ab125625)
